Experimental data reported in a protein production outcome set (Wang et al. 2014).

Experiment: label from the status in PepcDB records

Row | Sequence | protein production
1 | MLELKNENLTVQFSELGGQIISIKDKDGIEYLWQGEPTYWSGQAPVLFPICGSLRNDWAIYEPAERPTFTGTIPRHGLVRKMLFKNVKSTENSLEFSISSNEETVKNYPFEFELSINYSLFGKTIRIEYRVKNLEGHRKLPYFIGGHPGFNCPLLDGESYEDYYLEFEKVESCTVPRSFPETGLLDLRDRRPFLENQKTLDLSYKLFEYDAITLDQLASRKVTLKSKNHQKKLSIAFDDFPYLVIWSTTNQSPFIALEPWSGLSTSLEESDIFNAKRNISYVAPKEVDTKYFDIIIE | failed
2 | MLELNAKTTALVVIDLQEGILPFAGGPHTADEVVNRAGKLAAKFRASGQPVFLVRVGWSADYAEALKQPVDAPSPAKVLPENWWQHPAALGATDSDIEIIKRQWGAFYGTDLELQLRRRGIDTIVLCGISTNIGVESTARNAWELGFNLVIAEDACSAASAEQHNNSINHIYPRIARVRSVEEILNAL | not failed
3 | MLEMIYFAVVAIVGFFFYRKMNGKPMFGFKKKGKSQGGVEKRTAEKNGKKNKKNTPATEEIDEDNVDFFSAFVEDIKEVENHMIRYHDDTFVLIAEAHPVNYYLLSNAEQEAIDIKIESWLTTLEFNTKVYIQSKFVDLTDPVRKMTETMKGAKDLTPETVLYGQEVIDNLEYWQRSQPRYEQKRYLIYPYKVDISTITADTEEELEEKIVDKAFNELYRRYNASRNLLSKAKISVEMLTKDKLIELLYVAFNRRKAVKARFQDLIENENFSLYSTGETNERKLELMKKVLAEEKAEKSNNGVA | failed
4 | MLEQGTISIHTENIFPIIKKSLYSDHQIFLRELVSNAVDAIQKLKMVSRAGEYAGVVDEPEIQLAIDKDKKTLSITDNGIGMTAEEVKKYINQVAFSSAEEFIHKYQGKSDQPIIGHFGLGFYSSFMVAQKVEIDTLSYQEGAQAVHWSCDGSPEFTLEESSRTTIGTTITLTLLPDEEEYLESARVKNLVKTYCDFMPVPIKLDGEVLNRQKAPWRESPSNLTKEDYLEFYRYLYPFQEEPLLWVHLNTDYPFIINGILYFPKMRPDVDVTKGQIKLFCNQVFVSDNCEEIIPQFLVPMRGVIDSTDIPLNVSRSALQGDRTVRKIGDYIAKKVGDRLKELYRDDREQYISAWKDLSTFVKFGVLNDEKFKKQVEDIIIFRSTVKWEQPAETPAVEVQSQEGDVWQDITPSPDSPTPGLPYTTLKEYLERNKERHENRVFYSTDEATQATYIELHKNQGLEVLFLDSFIDTHFINFLEQEYQDVKFTRVDSDLDNTLLEQDKAGEIVDPTTNKTKSEIIKELFEKSLNKPKVNIRTEALKSDDPQGTPPAIVLLPEFLRRMREMTAMMQQQNADFPEDHILLVNTAHPLIQNLVNLNQGAIIQGDGESTTNPLVNLICQHVYDLALMSQKGFDAEGMKSFVERSNDVLTKLTQQAKN | failed
5 | MLEYKKILVPVEGSPKGELALKKAIFVAKRNHAHLDILTVIQSSRFLDVYGHMGSNMDYVEVSLRRAKEYVEDLKDQIKRKYDFEDVEVYVEAGDPKAIIATEMPEKLGTDLIMMGATGLNAFQRAMIGSVADYVTRVALMDVLLVRTELDNLPYSK | failed
6 | MLFDTSPKDNRKDFFDREKEIEKLKGLRAPITLVLGLRRTGKSSIIKIGINELNLPYIYLDLRKFEERNYISYKDFLLELQKEINKLVKRLPSLLKALKNIQGIVIMGNEIKFNWNRKDRLSFANLLESFEQASKDNVIIVLDEAQELVKLRGVNLLPALAYAYDNLKRIKFIMSGSEMGLLYDYLRVEDPESPLFGRAFSTVELKPFSREEAIEFLRRGFQEADIDFKDYEVVYEKIGGIPGWLTYFGFIYLDNKNLDFAINQTLEYAKKLILKEFENFLHGREIARKRYLNIMRTLSKCGKWSDVKRALELEEGIEISDSEIYNYLTQLTKHSWIIKEGEKYCPSEPLISLAFS | not failed
7 | MLGGIEAGGTKFVCAVGREDGTIIDRIEFPTKMPDETIEKVIQYFSQFSLQAIGIGSFGPVDNDKTSQTYGTITATPKAGWRHYPFLQTVKNEMKIPVGFSTDVNAAALGEFLFGEAKGLDSCLYITIGTGIGAGAIVEGRLLQGLSHPEMGHIYIRRHPDDVYQGKCPYHGDCFEGLASGPAIEARWGKKAADLSDIAQVWELEGYYIAQALAQYILILAPKKIILGGGVMQQKQVFSYIYQYVPKIMNSYLDFSELSDDISDYIVPPRLGSNAGIIGTLVLAHQALQAEAASGEVRS | not failed
8 | MLGLGVDRLQADINRLLASLFHQGVLDEQFLQLQQLQDETSPNFVYDVINIYFDESEKLLRNLRLLLMDREFSDYKKIGLHLNQLVGSSSSIGARRVRNVCVAFRSASELSNRPGCLRGLEVVEHEYHYLKNMMHELFQWLQLEQQRILAAGVRYPM | failed
9 | MLGNKVVSSPLVAALVALAVRLLAHNFSHHIHLPYHFGITTSKTGSEIWKEAVFWKQQFGVVPAFLTTVGPWFMEYIPPASSDAYVIFLCLCDALTVYIVSRWPSAKPQLTYALFVLNPIMALLPMLESLAPLEHVLLAVILECCRKRRIHPWLIFAARLLAPLLGFHFIAIIVALWYPVGTPCPKIALVGVALCTACIGGCGMLYLRWWGEHVERTSLYSPPDNGVMWYVRLLIMAAFHRSMEVGQIELPAVLTLIFSTGVPCEKEAAAETMKDGGAIPGDRRLLVTLLAICFSKLFCEHVILADYMITVFFLYSLLEVKGRGGFKSMLDRVRGLNIFLPICTLLLGVPLQYAFYTGWVMWDMANPNWVFFPQVAFVTGGGLFLLAFVNSLVDAMKEECVAGITKEKQA | failed
10 | MLGSTDLVLLGKVVATHGIRGQLSVVPFSGEFSTILSMQTVYLSGPDNRKESFEVDRAAVHRNRVLLTLKGFANINEVLHLVGRELFARRDQFPPLDEGEFYWCDLIGLSVTTSEGLSLGRIEEIIATGSNDVYVVRDGEREYLIPALEDIVVGVDLDKGIMTVSPTEGLLDLLEHHHHHH | not failed
11 | MLGTSFNNFGISLSHKRYFSGKVDEIIRCTMGKRIVKISSTKINTSILSSVSEQIGENITDWKNDEKKVYVSRVVNQCIDKFCAEHSRKIGDNLRKQIFKQVEKDYRISLDINAAQSSINHLVSGSSYFKKKMDELCEGMNRSVKNDTTSNVANLISDQFFEKNVQYIDLKKLRGNMSDYITNLESPFLEHHHHHH | failed
12 | MLIAILLLLLSIFNIFIGKKVKDKNLAHLLSGFDKEKDDLEYVSSVLGNTFKWIGNLGVIITAIYLILINSISVGLYLICYVGVIILFTVNLTFKTDRHRRSKLKASK | failed
13 | MLIALLLISYQLIKHGYRAADIKNLYTILEGEELRRQKDLSAKLRWGIVDEILWTIIVANGAILFTAHYVLIGLKILDLIAIFVVMLSGVMLYAPLAFLFLYPVVRAFEKNFPPSNPQFLLSHGLICTVSSLIVYEKLEQLWWDPLLVGFFWIAAGFVSFFTNRRFEVLVFLLLIAPLALLSVKCPGAILPILLAKSECSLRIQATFLVKLAVLIFASLAAVALVLQVFGYKSLRELSEKRKAAIKQGKYNPLRDPIIWIAWIMLTSLGLLIASFMERGEISPNML | failed
14 | MLIATFFFTSHFSRAKQPMWYNGLLDLSVWQVIAVTLAMTHVTIVGVTVYLHRYSAHRSLELNAGLKHFFRFWLWLTTAQNTREWTAIHRKHHAKCETVDDPHSPVVKGLSTVLRKGAELYREEAQNQDTLRIYGKNCPEDWIERNLYSRYKMLGIVLMAVIDLALFGAIGITVWAIQMMWIPFWAAGVVNGLGHAVGYRNFECRDAATNLVPWGIVIGGEELHNNHHTYPNSAKLSVKPWEFDMGWAWIKLFSFLRLAKVQRVAPIAHRVEGKGHIDMDTAMAILNNRFQIMAQYRKLVIAPLVTQELAKADESVRHQFRRAKRLLSRETSLLDDKHHLRIQTMLEHSHALKVIYEKRLALQQIWVKTSSNGHDMLSAMKEWIHEAEASGIQSLREFADQLKTYSLRPVHA | failed
15 | MLIAVPLDDTNFSENLKKAKEKGADIVELRVDQFSDTSLNYVKEKLEEVHSQGLKTILTIRSPEEGGREVKNREELFEELSPLSDYTDIELSSRGLLVKLYNITKEAGKKLIISYHNFELTPPNWIIREVLREGYRYGGIPKIAVKANSYEDVARLLCISRQVEGEKILISMGDYGKISRLAGYVFGSVITYCSLEKAFAPGQIPLEEMVELRKKFYRL | not failed
16 | MLICNDKSNPKTLLEEIMALRPWRKGPFEISQIKIDSEWDSSIKWDLVKNATPLKDKVVADVGCNNGYYLFKMLEHGPKSLVGFDPGVLVKKQFEFLAPFFDKEKKIIYESLGVEDLHEKYPNAFDVIFCLGVLYHRKSPLEALKALYHALKIKGELVLDTLIIDSPLDIALCPKKTYAKMKNVYFIPSVSALKGWCERVGFENFEILSVLKTTPKEQRKTDFILGQSLEDFLDKTDPSKTLEGYDAPLRGYFKMLK | failed
17 | MLIDSLHVSFDSFNFESILPMLVLVCGGIFTLLINAFTSRFSRNLNVFLCMLFLVLDFLVVLGLEEQENAFFGFLSLDTLSLISQSIVLISAFLLIFLALSKERFNEFQTAEFYSLYLFIVAGFQFMVSSNHLLLILIGLETASLPLCVLMALSDKRYGLEAGIKYFTMGAMASAFFAMGAMAFYLLTGSLNLEVITLYLHTEGITNPMLFAMGAIFLIGAIGFKVSLVPFHTWMPDVYEGNNPVFASYISIVPKIAGFVVATRLFGAFIDTRTAWVEDIFYVLILMTITIPNFIALWQEDVKRMLAYSSISHSGFALACVFIHTEDSQQAMFVYWFMFAFTYIGAFGLLWLLKSREKTWDERYDHPYSKFNGLIKTHPLVAILGAIFVFGLAGIPPFSVFWGKFLAVESALESNHILLAVVMLVNSAVAAFYYFRWLVAMFFNKPLQSYAQNDIYTQNATMPIYAVIIAMALACLFSVFMMRGLLEFVA | failed
18 | MLIEILEFASILALVAVLTLTVMLQDIFFIDINKQYTETRIGTIIFSIRMLFGAWVIFVTETTIIAISKVTAIQLIILLLIWVCSKYVQKTRENWLITIVAFVIYGVGTYIYIQFAFKGY | failed
19 | MLIGAIVAKDDTWLLWAIIIVWATVSLFLEQRYRWASTISGAIIALVGAMLLSNFKVIPMSAPVYDTVWDYIVPLSIPLLLFSSNILKIWKESRRLLVIFFVASIGTMIGTTVGFMILNQWIPYLNKIGAMMTGSYIGGGVNFAALSSKLETPSEMISSTVVADNSVMALYFMLLIALPSLPLIKKQFKSDYESKSTPESQQAYWEPKKIQLLDIAFSIASAVTLVAVSFKGADLIQQWMPQHNVVLTLIVSFLGDPYLLLTTLTLIVVAVWGDFFESLAGASEIGTFLIYIFFVVIGTPASFATIITTAPLLFIFVIIILVFNLGLSLIFGKIFGFKIEEILLASNATAGGPTTAAALAIGKGWTKVVGPILIIGTLGYVIGNYAGTLMYQLLTYLG | failed
20 | MLIGEIMDLNLKNFLEDREEIIRDAKRKDEKSFKDFKKIVEEIKERENKDKIVCDFTEYNPLHKGHKYALEKGKEHGIFISVLPGPLERSGRGIPYFLNRYIRAEMAIRAGADIVVEGPPMGIMGSGQYMRCLIKMFYSLGAEIIPRGYIPEKTMEKVIDCINKGYHIQVKPYKIICIETGEILGEKLNIDNYVIASMSQMIYKLNREGLKFNPKFVFVKRLEGISGTKIREAIFSGKFEDIKNMLPKTTLSILKELYDNGKLNELILKRFEDRILETANEYDLYEYLPSNVAEILEKKRPFNNIEEIKNSLPYGFSRHFRERILSKLEARIPNETLSKYINNYPAKIKILAVKL | not failed
